Measurements from paper PMC11855606.

What was measured:
[1] = target: growth hormone receptor a (ghra) of Cynoglossus semilaevis, mScarlet-I fusion (pcDNA3.1-S-ghra) (Cynoglossus semilaevis); assay: FRET or BRET; acceptor bleaching FRET in HEK 293T cells co-transfected with the mNeonGreen-ligand and mScarlet-I-receptor plasmids at a 1:2 ratio, 48 h after transfection, Nikon A1R HD25 confocal microscope; FRETeff = (Dpost - Dpre)/Dpost
[2] = target: growth hormone receptor b (ghrb) of Cynoglossus semilaevis, mScarlet-I fusion (pcDNA3.1-S-ghrb) (Cynoglossus semilaevis); assay: as above
Sequence of growth hormone receptor b (ghrb) of Cynoglossus semilaevis, mScarlet-I fusion (pcDNA3.1-S-ghrb) (Cynoglossus semilaevis) (main, as listed by the source): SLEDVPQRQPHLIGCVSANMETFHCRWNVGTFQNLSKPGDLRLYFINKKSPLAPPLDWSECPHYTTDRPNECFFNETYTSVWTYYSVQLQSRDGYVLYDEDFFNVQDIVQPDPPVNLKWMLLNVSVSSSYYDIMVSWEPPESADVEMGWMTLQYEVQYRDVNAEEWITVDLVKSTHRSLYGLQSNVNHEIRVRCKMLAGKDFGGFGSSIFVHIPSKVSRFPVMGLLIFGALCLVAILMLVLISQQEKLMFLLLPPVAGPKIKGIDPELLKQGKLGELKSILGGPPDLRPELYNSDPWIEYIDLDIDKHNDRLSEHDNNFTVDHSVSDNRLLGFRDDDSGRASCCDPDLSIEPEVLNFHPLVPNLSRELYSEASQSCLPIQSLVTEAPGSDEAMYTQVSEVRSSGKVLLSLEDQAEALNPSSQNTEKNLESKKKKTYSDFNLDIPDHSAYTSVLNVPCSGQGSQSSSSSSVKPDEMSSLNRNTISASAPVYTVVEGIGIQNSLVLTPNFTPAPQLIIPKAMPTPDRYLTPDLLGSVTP

Sequence of growth hormone receptor a (ghra) of Cynoglossus semilaevis, mScarlet-I fusion (pcDNA3.1-S-ghra) (Cynoglossus semilaevis) (main, as listed by the source): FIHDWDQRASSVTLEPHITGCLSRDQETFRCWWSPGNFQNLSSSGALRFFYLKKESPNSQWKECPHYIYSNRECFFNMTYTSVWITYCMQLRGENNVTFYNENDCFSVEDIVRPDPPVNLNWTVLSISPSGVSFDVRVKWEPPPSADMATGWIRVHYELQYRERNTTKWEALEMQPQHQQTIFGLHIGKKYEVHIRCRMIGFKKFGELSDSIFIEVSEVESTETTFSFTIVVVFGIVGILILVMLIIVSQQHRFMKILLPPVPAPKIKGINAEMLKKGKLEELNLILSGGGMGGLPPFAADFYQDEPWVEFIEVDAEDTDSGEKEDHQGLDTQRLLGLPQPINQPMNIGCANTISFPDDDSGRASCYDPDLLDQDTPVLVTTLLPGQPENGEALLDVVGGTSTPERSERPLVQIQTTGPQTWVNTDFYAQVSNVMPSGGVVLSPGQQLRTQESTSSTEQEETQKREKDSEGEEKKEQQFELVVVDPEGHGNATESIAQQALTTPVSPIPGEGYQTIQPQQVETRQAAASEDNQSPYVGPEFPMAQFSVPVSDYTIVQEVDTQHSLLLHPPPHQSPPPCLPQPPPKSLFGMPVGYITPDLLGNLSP

Row | FRET efficiency [1] | FRET efficiency [2] | Substance
1 | 0.0509 | – | somatolactin (sl) of Cynoglossus semilaevis, mNeonGreen fusion (pcDNA3.1-N-sl) (ligand)
2 | 0.0534 | 0.036 | growth hormone (gh) of Cynoglossus semilaevis, mNeonGreen fusion (pcDNA3.1-N-gh) (ligand)
